B1: 101F7 (antibody, human IgG2, lambda, V domains shown)
VH: QVQLVQSGAEVKKPGASVKVSCKASGYTFSSYGISWVRQAPGQGLEWMGWISAYNGNTNYAQKFQGRVTMTTDTSTSTAYMELRSLRSDDTAVYYCAREVRLAARPDHYYGMDVWGQGTTVTVSS
VL: QSVLTQPPSVSAAPGQKVTISCSGSSSNIGINYVSWYQLLPGTAPKLLIYDNNKRPLGIPDRFSGSKSGTSATLGITGLQTGDETDYYCGTWDSSLSAWVFGGGTKLTVLG
notes: Fully human XenoMouse antibody; also called L1/H1; VL1/VH1
B2: 103B7 (antibody, human IgG2, lambda, V domains shown)
VH: QVQLVQSGAEVKKPGASVKVSCKASGYTFSSYGISWVRQAPGQGLEWMGWISAYNGNTNYAQKFQGRVTMTTDTSTSTAYMELRSLRSDDTAVYYCAREVRLAARPDHYYGMDVWGQGTTVTVSS
VL: QSVLTQPPSVSAAPGQKVTISCSGSSSNIGINYVSWYQLLPGTAPKLLIYDNNKRPLGIPDRFSGSKSGTSVTLGITGLQTGDEADYFCGTWDSNLSAWVFGGGTKLTVLG
notes: Fully human XenoMouse antibody; also called L2/H2; VL2/VH1
B3: 131D12 (antibody, human IgG2, lambda, V domains shown)
VH: QGQLVESGGGVVQPGRSLRLSCAASGFTFSSYGMHWVRQAPGKGLEWVAVIWHDGSNKYYADSVKGRFTISRDNSKNTLYLQMNSLRAEDTAVYYCARVVPDNWNQDYYGMDVWGQGTTVTVSS
VL: SYELTQPPSVSVSPGQTASITCSGDKLGDKYACWFQQKPGQSPVLVIYQDSKRPFGIPDRFSGSKSGNTATLTISGTQAMEEADYYCQAWDSSTAVFGGGTKLTVLG
notes: Fully human XenoMouse antibody; also called L3/H3; VL3/VH2
B4: 27B2 (antibody, human IgG2, lambda, V domains shown)
VH: QVQLVESGGGVVQPGRSLRLSCAASGFTFSSYGMHWVRQAPGKGLEWVAAIWYDGSNKYYAESVKGRFTISRDNSKYTLYLQVNSLRAEDTAVYYCARRGGLAARPGGLDVWGQGTTVTVAS
VL: SYELTQPPSVSVSPGQTISISCSGDKLGDKNACWYQQKPGQSPGLVIYQDSKRPLGIPARFSGSNSGNTATLTISGTQAMDEADYYCQAWDISTVVFGGGTKLTVLG
notes: Fully human XenoMouse antibody; Tested as hybridoma supernatant, the VH ends '...TTVTV' without the final 'SS'; also called 27B2.6; L4/H4

Experiments:
[1] = molecular target: T1, human proprotein convertase subtilisin kexin type 9 (self-cleaved, mature, secreted PCSK9) (human, UniProt Q8NBP7 31-692); test: solution equilibrium binding assay on BIAcore, pH 5.5
T1 construct: Self-cleavage means the pro-domain and the catalytic/C-terminal part are separate, associated polypeptides; also called huPCSK9; wild-type PCSK9
T1 sequence (Q8NBP7 other isoform, or with tags, fused parts or gaps): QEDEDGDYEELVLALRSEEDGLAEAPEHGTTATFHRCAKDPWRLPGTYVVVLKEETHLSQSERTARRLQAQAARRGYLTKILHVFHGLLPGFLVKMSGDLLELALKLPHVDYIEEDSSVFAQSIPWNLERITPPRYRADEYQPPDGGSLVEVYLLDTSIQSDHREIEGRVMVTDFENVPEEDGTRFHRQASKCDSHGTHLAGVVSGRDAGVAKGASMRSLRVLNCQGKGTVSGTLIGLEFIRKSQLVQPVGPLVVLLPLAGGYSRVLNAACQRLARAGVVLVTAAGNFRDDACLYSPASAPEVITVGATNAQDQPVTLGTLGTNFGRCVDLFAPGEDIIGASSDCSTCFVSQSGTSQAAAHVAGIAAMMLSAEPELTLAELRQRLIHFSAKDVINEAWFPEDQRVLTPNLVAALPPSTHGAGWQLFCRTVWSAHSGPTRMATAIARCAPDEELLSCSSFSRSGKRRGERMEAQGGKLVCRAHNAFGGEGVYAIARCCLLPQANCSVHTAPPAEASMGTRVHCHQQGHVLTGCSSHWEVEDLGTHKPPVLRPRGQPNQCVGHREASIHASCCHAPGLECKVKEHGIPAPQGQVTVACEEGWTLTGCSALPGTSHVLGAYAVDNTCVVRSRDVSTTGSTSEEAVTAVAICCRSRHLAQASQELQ
Method: (§1) Binding of anti-PCSK9 antibodies to human and cynomolgus monkey PCSK9 was measured by solution equilibrium binding assay on BIAcore. Antibody was immobilized on the second flow cell of a CM5 chip using amine coupling (reagents provided by GE Healthcare, Piscataway, N.J.) with an approximate density of 6000 RU. The first flow cell was used as a background control. For assay at pH 7.4, 0.1 nM or 1.0 nM of PCSK9 were mixed with serial dilutions of antibody (ranging from 0.003 nM to 50 nM) in PBS plus 0.1 mg/mL BSA, 0.005% P20 and incubated at room temperature for 4 hours. For assay at pH 5.5, 0.1 nM or 1.0 nM of PCSK9 were mixed with serial dilutions of antibody (ranging from 0.003 nM to 50 nM) in 10 mM Sodium Citrate, pH 5.5, plus 150 mM NaCl, 0.1 mg/mL BSA, 0.005% P20 and incubated at room temperature for 4 hours. Binding of free PCSK9 in the mixed solutions was measured by injecting over the antibody coated chip surface. One hundred percent PCSK9 binding signal on the antibody surface was determined in the absence of antibody in the solution. A decreased PCSK9 binding response with increasing concentrations of antibody in solution indicated PCSK9 was binding to the antibody, preventing PCSK9 from binding to the immobilized antibody surface. Plotting the PCSK9 binding signal versus antibody concentration, the KD was obtained from nonlinear regression of the competition curves using an n-curve one-site homogeneous binding model provided in the KinExA Pro software.

cynomolgus PCSK9 [2] = molecular target: T2, cynomolgus PCSK9 (cynomolgus monkey, UniProt A8T662 31-692 (Macaca nemestrina entry), limits assumed); test: as above
T2 construct: also called cyPCSK9; cynomolgus monkey PCSK9
T2 sequence (A8T662 31-692 K611R limits assumed): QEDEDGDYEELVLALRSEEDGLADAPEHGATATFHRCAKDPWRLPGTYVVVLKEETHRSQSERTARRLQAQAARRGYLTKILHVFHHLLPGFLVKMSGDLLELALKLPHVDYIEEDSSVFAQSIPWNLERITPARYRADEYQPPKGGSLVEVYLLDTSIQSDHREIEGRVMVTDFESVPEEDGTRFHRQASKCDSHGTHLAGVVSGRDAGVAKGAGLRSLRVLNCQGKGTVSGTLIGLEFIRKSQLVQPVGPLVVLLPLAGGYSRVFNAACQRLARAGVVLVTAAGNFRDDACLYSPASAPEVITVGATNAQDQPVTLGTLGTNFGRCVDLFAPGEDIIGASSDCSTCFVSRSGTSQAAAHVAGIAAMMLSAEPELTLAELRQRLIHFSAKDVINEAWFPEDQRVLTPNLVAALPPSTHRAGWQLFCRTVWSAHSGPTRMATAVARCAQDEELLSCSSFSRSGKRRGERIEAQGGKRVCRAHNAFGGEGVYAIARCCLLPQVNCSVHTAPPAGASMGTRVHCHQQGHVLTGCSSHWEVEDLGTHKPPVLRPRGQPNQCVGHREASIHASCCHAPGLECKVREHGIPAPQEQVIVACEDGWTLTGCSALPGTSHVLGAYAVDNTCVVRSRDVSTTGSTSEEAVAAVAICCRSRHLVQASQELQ
Method: as §1

[3] = molecular target: T1, human proprotein convertase subtilisin …; test: solution equilibrium binding assay on BIAcore, pH 7.4
Method: as §1

cynomolgus PCSK9 [4] = molecular target: T2, cynomolgus PCSK9; test: as above
Method: as §1

[5] = molecular target: T1, human proprotein convertase subtilisin …; test: ELISA, hybridoma supernatant on neutravidin-captured biotinylated PCSK9
Method: A primary screen for antibodies which bind to wild-type PCSK9 was performed. The primary screen was performed on two harvests. The primary screen comprised an ELISA assay and was performed using the following protocol:
The plates were coated with neutravadin at a concentration of 4 μg/ml in 1×PBS/0.05% Azide, at a volume of 40 μl/well. The plates were incubated at 4° C. overnight. The plates were then washed using a Titertek plate washer (Titertek, Huntsville, Ala.). A 3-cycle wash was performed. The plates were blocked with 90 μl of 1×PBS/1% milk and incubated approximately 30 minutes at room temperature. The plates were then washed. Again, a 3-cycle wash was performed. The capture sample was biotinylated-PCSK9, and was added at 0.9 μg/ml in 1×PBS/1% milk/10 mM Ca²⁺ at a volume of 40 μl/well. The plates were then incubated for 1 hour at room temperature. Next, the plates were washed using the Titertek plate washer operated using a 3-cycle wash. 10 μl of supernatant was transferred into 40 μl of 1×PBS/1% milk/10 mM Ca²⁺ and incubated 1.5 hours at room temperature. Again the plates were washed using the Titertek plate washer operated using a 3-cycle wash. 40 μl/well of Goat anti-Human IgG Fc HRP at a concentration of 100 ng/ml (1:4000) in 1λ PBS/1% milk/10 mM Ca²⁺ was added to the plate and was incubated 1 hour at room temperature. The plates were washed once again, using a 3-cycle wash. Finally, 40 μl/well of One-step TMB (Neogen, Lexington, Ky.) was added to the plate and quenching with 40 μl/well of 1N hydrochloric acid was performed after 30 minutes at room temperature. OD's were read immediately at 450 nm using a Titertek plate reader. Positive binding was determined as 3 times the average of signal of the negative control which was hybridoma supernatant.

[6] = molecular target: T1, human proprotein convertase subtilisin …; test: competition ELISA, supernatant pre-incubated with b-PCSK9; competitor 26H5 coated on plate
Method: (§2) Hybridoma supernatants were then assayed for direct binding competition. […] The next day each hybridoma supernatant was preincubated with 100 ng/ml b-PCSK9 at a 1:5 final dilution. These samples were then incubated for 2 hours at RT. The precoated antibody capture plates were then washed and the pre-incubated samples of hybridoma Antibody supernatants and B-PCSK9 were added to the plates and incubated for 1 hour at room temperature. Detection of bound b-PCSK9 was done with streptavidin HRP (Thermo P21126) at 500 ng/ml in 1×PBS/1% non fat skim milk. Incubated for 1 hour then added chromogenic substrate TMB, 3,3′,5,5′-tetramethylbenzidine, 40 ul/well incubated anywhere from 15 minutes to 60 minutes depending on OD then stopped with one molar hydrochloric acid. Optical density at 450 nm read on Multiskan Ascent reader. A % Inhibition was then calculated by comparing the amount of bound b-PCSK9 after preincubation with anti-PCSK9 hybridoma sups versus negative control wells using irrelevant hybridoma supernatants. % Inhibition=1−(OD of Ab supernatant/B-PCSK9/OD of Neg. control supernatant/B-PCSK9).

[7] = molecular target: T1, human proprotein convertase subtilisin …; test: competition ELISA, supernatant pre-incubated with b-PCSK9; competitor 31H4 coated on plate
Method: as §2

human D374Y PCSK9 mutant = molecular target: T3, human D374Y PCSK9 mutant (human, UniProt Q8NBP7 31-692, limits assumed); test: receptor-ligand blocking ELISA: supernatant pre-incubated with biotinylated D374Y PCSK9, binding to captured LDLR
T3 construct: It was biotinylated in the assay; also called biotinylated human D374Y PCSK9
T3 sequence (Q8NBP7 other isoform, or with tags, fused parts or gaps D374Y D374Y limits assumed): as the sequence (Q8NBP7 other isoform, or with tags, fused parts or gaps) above, with D344Y counted along it
Method: The plates were coated with goat anti-LDLR (R&D Cat #AF2148) at 2 μg/ml in 1λPBS/0.05% Azide at a volume of 40 μl/well. The plates were incubated at 4° C. overnight. The plates were then washed using a Titertek plate washer (Titertek, Huntsville, Ala.). A 3-cycle wash was performed. The plates were blocked with 90 μl of 1λ PBS/1% milk and incubated approximately 30 minutes at room temperature. The plates were then washed using the Titertek plate washer. A 3-cycle wash was performed. […] The plates were then incubated for 1 hour and 10 minutes at room temperature. […] The plates were then pre-incubated for about 1 hour and 30 minutes at room temperature. Next, the plates were washed using the Titertek plate washer operated using a 3-cycle wash. 50 μl/well of the pre-incubated mixture was transferred onto the LDLR coated ELISA plates and incubated for 1 hour at room temperature. To detect LDLR-bound b-PCSK9, 40 μl/well streptavidin HRP at 500 ng/ml in assay diluent was added to the plates. The plates were incubated for 1 hour at room temperature. The plates were again washed using a Titertek plate washer. A 3-cycle wash was performed. Finally, 40 μl/well of One-step TMB (Neogen, Lexington, Ky.) was added to the plate and was quenched with 40 μl/well of 1N hydrochloric acid after 30 minutes at room temperature. OD's were read immediately at 450 nm using a Titertek plate reader.

Binder	Kd [1] [nM]	Kd (cynomolgus PCSK9 [2]) [nM]	Kd [3] [nM]	Kd (cynomolgus PCSK9 [4]) [nM]	Early primary screen OD [5]	Late primary screen OD [5]	% inhibition of 26H5 Binding [6] [%]	% inhibition of 31H4 Binding [7] [%]	% R-L Inhibition (human D374Y PCSK9 mutant) [%]
B1	0.016	0.008	0.006	0.008	3.45 OD (450 nm)	3.91 OD (450 nm)	92	82	94
B2	0.018	0.022	0.007	0.011	4.03 OD (450 nm)	3.46 OD (450 nm)	90	79	93
B3	0.12	3.1	0.067	1.5	3.3 OD (450 nm)	3.56 OD (450 nm)	90	89	92
B4	–	–	–	–	4.9 OD (450 nm)	4.2 OD (450 nm)	–	–	93
